Target: CD123 extracellular domain (human (cDNA of L-428 cells)) (UniProt P26951)
Test: SPR
Conditions: bispecific antibody

CD123 extracellular domain (human (cDNA of L-428 cells)), sequence (P26951 19-305): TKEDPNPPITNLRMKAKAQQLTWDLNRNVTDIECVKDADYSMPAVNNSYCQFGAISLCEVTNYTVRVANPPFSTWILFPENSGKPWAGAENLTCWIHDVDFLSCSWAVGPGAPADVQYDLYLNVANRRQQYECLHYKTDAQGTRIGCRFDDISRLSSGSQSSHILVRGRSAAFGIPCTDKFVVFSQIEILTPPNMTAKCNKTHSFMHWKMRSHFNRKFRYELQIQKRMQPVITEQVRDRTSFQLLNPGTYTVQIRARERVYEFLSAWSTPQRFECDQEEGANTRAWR

| Kd [nM] | Substance |
| --- | --- |
| 2.74 | 1 × SIRPα-αCD123 fusion antibody (from UniProt P78324 31-149) |
| 2.34 | 2 × SIRPα-αCD123 fusion antibody (from UniProt P78324 31-149; P78324 31-149) |
